We go through 167 variants from publication PMC12102759.

Sequences and labels used below:
B1: NOTCH4 peptide 1606-1621 (Neurogenic locus notch homolog protein 4), 16-mer library wild type / NSP9 (ORF1ab Nsp9, residues 4141-4253) (parent)
chain 1: QGAWLGAPEPWEPLLD
chain 2: NNELSPVALRQMSCAAGTTQTACTDDNALAYYNTTKGGRFVLALLSDLQDLKWARFPKSDGTGTIYTELEPPCRFVTDTPKGPKVKYLYFIKGLNNLNRGMVLGSLAATVRLQ
B2: TET3 peptide 458-473 (Methylcytosine dioxygenase TET3), 16-mer library wild type / NSP3 SUD-M (ORF1ab Nsp3c SUD-M, residues 1356-1493) (parent)
chain 1: DPMAELEQLLGSASDY
chain 2: LPSIISNEKQEILGTVSWNLREMLAHAEETRKLMPVCVETKAIVSTIQRKYKGIKIQEGVVDYGARFYFYTSKTTVASLINTLNDLNETLVTMPLGYVTHGLNLEEAARYMRSLKVPATVSVSSPDAVTAYNGYLTSS
B3: AZIN2 peptide 1-16 (Antizyme inhibitor 2), 16-mer library wild type / NSP3 ADRP (ORF1ab Nsp3b ADRP, residues 1023-1192) (parent)
chain 1: MAGYLSESDFVMVEEG
chain 2: not shown
B4: ICA1L peptide 453-468 (Islet cell autoantigen 1-like protein), 16-mer library wild type / NSP16 (ORF1ab Nsp16, residues 6799-7088) (parent)
chain 1: MSAWFNLFADLDPLSN
chain 2: SSQAWQPGVAMPNLYKMQRMLLEKCDLQNYGDSATLPKGIMMNVAKYTQLCQYLNTLTLAVPYNMRVIHFGAGSDKGVAPGTAVLRQWLPTGTLLVDSDLNDFVSDADSTLIGDCATVHTANKWDLIISDMYDPKTKNVTKENDSKEGFFTYICGFIQQKLALGGSVAIKITEHSWNADLYKLMGHFAWWTAFVTNVNASSSEAFLIGCNYLGKPREQIDGYVMHANYIFWRNTNPIQLSSYSLFDMSKFPLKLRGTAVMSLKEGQINDMILSLLSKGRLIIRENNRVVI
B5: NEK9 peptide 736-751 (Serine/threonine-protein kinase Nek9), 16-mer library wild type / NSP9 (ORF1ab Nsp9, residues 4141-4253) (parent)
chain 1: NSSGLSIGTVFQSSSP
chain 2: B1 chain 2

The variants in the first assay derive from B1. The conditions noted are these: with NSP9 (ORF1ab Nsp9, residues 4141-4253); bait immobilised on MaxiSorp plates (10 µg), library pre-cleared on GST, 2 h binding at 4 °C, five washes; one round per day, days 1-4; value from days 2 and 3; keep out of graded; scale: average fractional NGS count over selection days 2 and 3.
As to chain 1 A3G, the screen value is 0.

Turning to chain 1 A3H, the screen value was 3.7e-05.

As to chain 1 A3E, the screen value came out at 2.97e-05.

On to chain 1 P8K, for which the screen value worked out at 0.

With chain 1 Q1G, the screen value came to 5.8e-05.

In the case of chain 1 Q1V, the screen value turned out to be 3.52e-05.

For chain 1 Q1S, the screen value is 7.35e-05.

Take chain 1 L15W: the screen value is 5.05e-05.

Regarding chain 1 L15G, the screen value came out at 6.9e-05.

For chain 1 L5Y, the screen value was found to be 0.

With chain 1 L5H, the screen value was 0.

For the variant chain 1 L5M, the screen value is 0.

Turning to chain 1 L5V, the screen value amounted to 3.16e-05.

With chain 1 L5P, the screen value turned out to be 3.64e-05.

Take chain 1 L5K: the screen value was determined as 0.

chain 1 G2Y: the screen value was determined as 0.

Turning to chain 1 G2H, the screen value turned out to be 0.

Turning to chain 1 G2L, the screen value stood at 0.

Take chain 1 G2A: the screen value was 0.

With chain 1 G2W, the screen value amounted to 0.

For chain 1 G2T, the screen value is 0.

For the variant chain 1 G2R, the screen value came out at 1.21e-05.

With chain 1 W4M, the screen value came to 0.

On to chain 1 W4H, for which the screen value turned out to be 0.

For the variant chain 1 W4T, the screen value turned out to be 0.

As for chain 1 W4Q, the screen value turned out to be 0.

For chain 1 W4F, the screen value is 7.26e-05.

chain 1 W4I: the screen value was 0.

Turning to chain 1 E9R, the screen value worked out at 5.73e-05.

As for chain 1 E9H, the screen value turned out to be 4.98e-05.

On to chain 1 L14D, for which the screen value was determined as 2.68e-05.

As to chain 1 L14E, the screen value stood at 4.45e-05.

For the variant chain 1 L14N, the screen value was 1.14e-05.

On to chain 1 G6W, for which the screen value was 0.

Regarding chain 1 G6N, the screen value came out at 0.

For chain 1 G6L, the screen value was found to be 0.

As for chain 1 G6R, the screen value was 0.

chain 1 G6S: the screen value turned out to be 0.

For chain 1 G6Y, the screen value stood at 0.

chain 1 G6F: the screen value amounted to 0.

With chain 1 G6Q, the screen value came out at 0.

Consider chain 1 G6E, for which the screen value amounted to 6.33e-05.

As for chain 1 G6H, the screen value was 0.

Take chain 1 W11R: the screen value is 3.62e-05.

For chain 1 W11K, the screen value came out at 3.16e-05.

chain 1 E12R: the screen value stood at 8.31e-05.

In the next assay the parent is B2. The conditions noted are these: with NSP3 SUD-M (ORF1ab Nsp3c SUD-M, residues 1356-1493); bait immobilised on MaxiSorp plates (10 µg), library pre-cleared on GST, 2 h binding at 4 °C, five washes; one round per day, days 1-4; value from days 2 and 3; keep out of graded; scale: average fractional NGS count over selection days 2 and 3.
As for chain 1 P2W, the screen value was determined as 0.

chain 1 P2A: the screen value was 0.

With chain 1 A4N, the screen value is 0.

chain 1 M3N: the screen value was 0.

chain 1 M3T: the screen value is 0.

Turning to chain 1 M3S, the screen value is 0.

On to chain 1 M3Q, for which the screen value stood at 0.

Turning to chain 1 D15K, the screen value was 0.

For the variant chain 1 D15G, the screen value stood at 0.

Take chain 1 L10Q: the screen value is 0.

In the case of chain 1 L10R, the screen value came out at 0.

Turning to chain 1 L10T, the screen value is 0.

For the variant chain 1 G11W, the screen value was determined as 0.

As for chain 1 Y16H, the screen value came to 0.

Consider chain 1 S12E, for which the screen value is 0.

As for chain 1 S12Q, the screen value is 0.

chain 1 S12I: the screen value was 0.

On to chain 1 S12G, for which the screen value stood at 0.

Take chain 1 S12R: the screen value is 0.

As for chain 1 Q8R, the screen value was 0.

On to chain 1 Q8M, for which the screen value was 0.

On to chain 1 Q8K, for which the screen value worked out at 0.

In the case of chain 1 Q8H, the screen value is 0.

chain 1 Q8S: the screen value turned out to be 0.

For chain 1 A13D, the screen value turned out to be 0.

With chain 1 A13V, the screen value came to 0.

In the case of chain 1 E7Y, the screen value came out at 0.

In the case of chain 1 E7I, the screen value was 0.

For chain 1 E7K, the screen value was 0.

For the variant chain 1 E7N, the screen value was found to be 1.67e-05.

On to chain 1 E7T, for which the screen value worked out at 0.

Take chain 1 L6M: the screen value was determined as 0.

For the variant chain 1 L6S, the screen value came out at 0.

Turning to chain 1 L6R, the screen value was determined as 0.

On to chain 1 S14I, for which the screen value was found to be 0.

On to chain 1 S14F, for which the screen value turned out to be 0.

As to chain 1 L9Y, the screen value turned out to be 0.

With chain 1 L9T, the screen value was 0.

Regarding chain 1 L9A, the screen value was found to be 0.

The next assay covers variants of B3. To be noted: with NSP3 ADRP (ORF1ab Nsp3b ADRP, residues 1023-1192); bait immobilised on MaxiSorp plates (10 µg), library pre-cleared on GST, 2 h binding at 4 °C, five washes; one round per day, days 1-4; value from days 2 and 3; keep out of graded; scale: average fractional NGS count over selection days 2 and 3.
Regarding chain 1 S6Q, the screen value came out at 0.

As to chain 1 S6G, the screen value is 0.

On to chain 1 S6W, for which the screen value amounted to 0.

Regarding chain 1 S6H, the screen value amounted to 0.

chain 1 S6T: the screen value was 0.

For chain 1 E14G, the screen value amounted to 5.95e-05.

chain 1 E14A: the screen value was 3.37e-05.

Take chain 1 E14V: the screen value is 1.13e-05.

Regarding chain 1 E14H, the screen value was 3.26e-05.

On to chain 1 E14T, for which the screen value came out at 1.06e-05.

In the case of chain 1 E7T, the screen value was 0.

For the variant chain 1 E7S, the screen value is 0.

On to chain 1 E7A, for which the screen value amounted to 0.

Consider chain 1 F10W, for which the screen value is 2.93e-05.

In the case of chain 1 F10D, the screen value turned out to be 0.

For chain 1 F10S, the screen value is 1.39e-05.

Take chain 1 F10R: the screen value came to 0.

As for chain 1 E15K, the screen value amounted to 0.

chain 1 E15V: the screen value worked out at 2.58e-05.

As to chain 1 E15Y, the screen value is 0.

Consider chain 1 E15W, for which the screen value was found to be 0.

For chain 1 E15A, the screen value is 1.82e-05.

On to chain 1 E15M, for which the screen value came to 0.

Turning to chain 1 E15F, the screen value came out at 0.

Take chain 1 S8F: the screen value amounted to 4.02e-05.

In the case of chain 1 S8N, the screen value turned out to be 5.33e-05.

For chain 1 S8Q, the screen value is 2.27e-05.

In the case of chain 1 S8D, the screen value was 1.43e-05.

Turning to chain 1 L5M, the screen value amounted to 1.33e-05.

In the case of chain 1 A2H, the screen value was determined as 0.

Turning to chain 1 A2M, the screen value is 0.

Regarding chain 1 A2G, the screen value came to 0.

As for chain 1 V13F, the screen value is 1.65e-05.

Regarding chain 1 V13A, the screen value was determined as 1.13e-05.

As for chain 1 V13E, the screen value worked out at 4.94e-05.

On to chain 1 V13W, for which the screen value was determined as 4.62e-05.

With chain 1 V13P, the screen value came out at 5.36e-05.

In the case of chain 1 V13N, the screen value was found to be 6.59e-05.

In the case of chain 1 V13G, the screen value amounted to 0.

Consider chain 1 V13S, for which the screen value worked out at 3.26e-05.

As for chain 1 M12D, the screen value was determined as 6.55e-05.

Regarding chain 1 M12W, the screen value came to 0.

As for chain 1 M12G, the screen value was determined as 0.

As to chain 1 M12Q, the screen value came out at 0.

Take chain 1 M12P: the screen value amounted to 6.03e-05.

For chain 1 M12K, the screen value is 0.

With chain 1 G16W, the screen value worked out at 5.19e-05.

chain 1 G16M: the screen value came out at 3.8e-05.

Take chain 1 G3P: the screen value was determined as 0.

Consider chain 1 G3S, for which the screen value was 2.71e-05.

In the case of chain 1 G3T, the screen value worked out at 0.

In the case of chain 1 V11K, the screen value worked out at 2.1e-05.

chain 1 V11R: the screen value was 4.17e-05.

chain 1 V11Q: the screen value is 1.04e-05.

Take chain 1 V11N: the screen value came out at 1.5e-05.

For the variant chain 1 D9A, the screen value amounted to 1.5e-05.

For the variant chain 1 D9I, the screen value was found to be 2.23e-05.

chain 1 D9H: the screen value was 2.63e-05.

For the variant chain 1 D9T, the screen value is 2.66e-05.

With chain 1 Y4F, the screen value stood at 1.08e-05.

In the next assay the parent is B4. To be noted: with NSP16 (ORF1ab Nsp16, residues 6799-7088); bait immobilised on MaxiSorp plates (10 µg), library pre-cleared on GST, 2 h binding at 4 °C, five washes; one round per day, days 1-4; value from days 2 and 3; keep out of graded; scale: average fractional NGS count over selection days 2 and 3.
In the case of chain 1 A9N, the screen value came out at 0.

Regarding chain 1 S2D, the screen value stood at 0.00136.

In the case of chain 1 S2L, the screen value was 0.

Regarding chain 1 N6R, the screen value was determined as 0.

chain 1 N6K: the screen value amounted to 0.

Consider chain 1 L11I, for which the screen value was 1.35e-05.

On to chain 1 L11P, for which the screen value worked out at 0.

On to chain 1 L11W, for which the screen value came to 0.

On to chain 1 W4A, for which the screen value turned out to be 0.

For chain 1 F8Y, the screen value stood at 0.

For chain 1 S15R, the screen value stood at 0.

For chain 1 D10Y, the screen value came to 6.76e-05.

For the variant chain 1 A3D, the screen value came out at 4.01e-05.

Regarding chain 1 A3P, the screen value worked out at 0.

Turning to chain 1 A3L, the screen value amounted to 0.

In the case of chain 1 L7S, the screen value worked out at 0.

For the variant chain 1 F5L, the screen value amounted to 0.

On to chain 1 F5W, for which the screen value came out at 0.

With chain 1 P13V, the screen value was determined as 0.

Another assay covers variants of B5. The conditions noted are these: with NSP9 (ORF1ab Nsp9, residues 4141-4253); bait immobilised on MaxiSorp plates (10 µg), library pre-cleared on GST, 2 h binding at 4 °C, five washes; one round per day, days 1-4; value from days 2 and 3; keep out of graded; scale: average fractional NGS count over selection days 2 and 3.
chain 1 V10F: the screen value worked out at 0.

For chain 1 V10T, the screen value is 0.

In the case of chain 1 V10S, the screen value is 5.93e-05.
